Data published in patent US20240239894A1 (AstraZeneca / MedImmune, published 2024).
Numbering of substitutions follows the chain as printed. Read-outs that look alike come from different tables or passages of the source.

Assays:
huB7-H2 = target: T1, huB7-H2 (human, UniProt O75144 19-258); test: ELISA
T1 construct: Sourced antigen; construct not described; also called Human B7-H2
T1 sequence (looked up): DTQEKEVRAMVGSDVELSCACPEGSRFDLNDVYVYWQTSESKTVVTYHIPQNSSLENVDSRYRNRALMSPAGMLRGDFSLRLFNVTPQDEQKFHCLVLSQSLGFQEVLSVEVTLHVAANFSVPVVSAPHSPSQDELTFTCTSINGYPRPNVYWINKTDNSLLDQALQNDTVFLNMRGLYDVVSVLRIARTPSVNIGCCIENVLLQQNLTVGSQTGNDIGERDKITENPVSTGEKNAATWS

human B7-H4 on cells = target: T2, human B7-H4 on cells (human, UniProt Q7Z7D3 25-282); test: cell-based or functional assay
T2 sequence: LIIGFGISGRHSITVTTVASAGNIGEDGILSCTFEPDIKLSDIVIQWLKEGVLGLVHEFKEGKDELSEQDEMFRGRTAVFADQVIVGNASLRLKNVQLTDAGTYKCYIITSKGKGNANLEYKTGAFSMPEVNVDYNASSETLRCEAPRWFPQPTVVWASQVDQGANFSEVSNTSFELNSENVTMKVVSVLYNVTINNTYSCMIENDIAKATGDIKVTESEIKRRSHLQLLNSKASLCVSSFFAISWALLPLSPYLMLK

[1] = target: T3, Human B7-H4-Fc (Human B7H4 ECD, Fc_6His) (human); test: HTRF binding, human IgG1-TM
T3 construct: also called FcHis6 tagged human B7-H4
T3 sequence (Q7Z7D3 whole entry, looked up): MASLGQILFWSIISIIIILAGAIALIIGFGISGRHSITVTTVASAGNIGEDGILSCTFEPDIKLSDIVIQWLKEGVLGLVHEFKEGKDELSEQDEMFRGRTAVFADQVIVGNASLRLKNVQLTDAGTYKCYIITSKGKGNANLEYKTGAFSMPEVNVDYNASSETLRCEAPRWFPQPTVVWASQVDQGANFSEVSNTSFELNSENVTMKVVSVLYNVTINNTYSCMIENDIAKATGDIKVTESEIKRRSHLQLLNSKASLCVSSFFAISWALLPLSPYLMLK

[2] = target: T4, Cyno B7-H4-Fc (Cyno B7H4 ECD, FcTM_6His) (cynomolgus monkey); test: HTRF binding, human IgG1-TM
T4 construct: extracellular domain; also called cynomolgus B7-H4-Fc

[3] = target: T5, Murine B7-H4-Fc (Mouse B7H4 ECD, Fc_6His) (mouse, UniProt Q7TSP5 25-257); test: HTRF binding, human IgG1-TM
T5 construct: extracellular domain; also called mouse B7-H4-Fc; FcHis6 tagged murine B7-H4
T5 sequence (Q7TSP5 whole entry, looked up): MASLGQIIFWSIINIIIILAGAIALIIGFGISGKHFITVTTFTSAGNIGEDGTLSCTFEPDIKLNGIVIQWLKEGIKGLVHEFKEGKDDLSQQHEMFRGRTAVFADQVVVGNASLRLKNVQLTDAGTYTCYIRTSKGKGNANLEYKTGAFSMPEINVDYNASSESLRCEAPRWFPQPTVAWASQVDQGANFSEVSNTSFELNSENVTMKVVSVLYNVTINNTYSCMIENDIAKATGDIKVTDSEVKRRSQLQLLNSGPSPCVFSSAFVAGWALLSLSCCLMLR

[4] = target: T6, Murine B7-H4 ECD-Flag-His10 (monomeric) (mouse, UniProt Q7TSP5 25-257); test: Octet; summary table, repeats Table 9 (hIgG1-TM)
T6 construct: extracellular domain; also called FlagHis10 murine B7-H4
T6 sequence (looked up): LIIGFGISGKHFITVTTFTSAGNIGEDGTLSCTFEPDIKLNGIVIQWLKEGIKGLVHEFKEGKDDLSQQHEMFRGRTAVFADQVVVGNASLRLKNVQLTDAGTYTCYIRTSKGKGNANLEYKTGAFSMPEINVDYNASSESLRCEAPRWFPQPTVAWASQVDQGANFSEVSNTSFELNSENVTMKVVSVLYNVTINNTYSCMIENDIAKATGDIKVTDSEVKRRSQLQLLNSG

[5] = target: T7, Human B7H4 ECD (SV), splice variant, 10His_FLAG (human); test: Octet; summary table, repeats Table 9 (hIgG1-TM)
T7 construct: also called B7-H4-SV

[6] = target: T6, Murine B7-H4 ECD-Flag-His10 (monomeric); test: Octet BLI; end of the range tied to the member by Table 9
[7] = target: T8, Human B7-H4 ECD-Flag-His10 (monomeric) (human, UniProt Q7Z7D3 25-259); test: Octet; summary table, rounded from Table 9 (hIgG1-TM)
T8 construct: Minimally biotinylated for KinExA; also called hB7H4-ECD-Flag-His10; B7-H4-FLAG
T8 sequence: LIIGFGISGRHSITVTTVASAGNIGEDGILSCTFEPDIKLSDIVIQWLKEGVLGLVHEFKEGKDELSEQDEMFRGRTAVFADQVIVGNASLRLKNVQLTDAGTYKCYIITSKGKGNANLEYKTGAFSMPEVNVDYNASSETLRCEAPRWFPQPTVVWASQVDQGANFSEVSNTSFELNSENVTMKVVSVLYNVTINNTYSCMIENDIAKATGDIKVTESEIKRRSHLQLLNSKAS

[8] = target: T3, Human B7-H4-Fc (Human B7H4 ECD, Fc_6His); test: ELISA, absorbance 450 nm; x axis printed as antigen concentration (µg/ml)
[9] = target: T8, Human B7-H4 ECD-Flag-His10 (monomeric); test: as above
[10] = target: T7, Human B7H4 ECD (SV), splice variant, …; test: Octet BLI; end of the range tied to the member by Table 9
[11] = target: T8, Human B7-H4 ECD-Flag-His10 (monomeric); test: as above
[12] = target: T8, Human B7-H4 ECD-Flag-His10 (monomeric); test: ELISA, absorbance 450 nm; x axis printed as antigen concentration (µg/ml); remark: listed apart in the source

B1: ZY0EQD-E02 human IgG1-TM (antibody, V domains shown)
VH: QVQLQQWGAGLLKPSETLSLTCAVYGGSFSGYYWNWIRQPPGKGLEWIGEINHSGSTSYNPSLKSRVTISVDTSKNQFSLKLSSVTAADTAVYYCARVLYNWNVDSWGQGTLVTVSS
VL: DIQMTQSPSSLSASVGDRVTITCRASQDIRNDVGWYQQKPGKAPKRLIYAASRLQSGVPSRFSGSGSGTEFTLTISSLQPEDFATYYCLQHNSYPRTFGQGTKVEIK
In the case of B1, the binding result (huB7-H2) is reported as “no binding”, the “ZAP % Viability, OVCAR4” value (human B7-H4 on cells) is reported as 40% and the “ZAP % Viability, SKBR3” value (human B7-H4 on cells) is reported as 48%. The “ZAP IC50 (M), OVCAR4” value (human B7-H4 on cells) was 2e-08 M, the “ZAP IC50 (M), SKBR3” value (human B7-H4 on cells) was 1e-08 M and the EC50 [1] was 0.00033 µM. For the same binder, the Max [1] was 1270, the EC50 [2] was 0.00028 µM and the Max [2] was 1100. For the same binder, the EC50 [3] was 0.00144 µM, the Max [3] was 224 and the Kd [4] was 0.621 µM. The Kd [5] was 0.801 µM, the Kd [6] was 0.01 to 0.6 µM and the Kd [7] was 0.014 µM. The “EC50 (read off the curve)” value [8] was about 0.09 mg/L and the “EC50 (read off the curve)” value [9] was about 0.08 mg/L.

B2: ZY0EOB-F05 human IgG1-TM (antibody, V domains shown)
VH: QVQLQESGPGLVKPSQTLSLTCTVSDGSISSGGYYWSWIRQHPGKGLEWIGNIYYSGSTYYNPSLKSRVTISVDTSKNQFSLKLNSVTAADTAVYYCATEKALATVTPSGYENYYTVDVWGQGTTVTVSS
VL: DIQLTQSPSFLSASVGDRVTITCWASQGISSYLAWYQQKPGKAPKLLIYAASTLQSGVPSRFSGSGSGTEFTLTISSLQPEDFATYYCQHLNSYPLTFGGGTKVEIK
In the case of B2, the binding result (huB7-H2) is reported as “no binding”, the “ZAP % Viability, OVCAR4” value (human B7-H4 on cells) is reported as 67% and the “ZAP % Viability, SKBR3” value (human B7-H4 on cells) is reported as 84%. It also gave an EC50 [1] of 0.00015 µM, a Max [1] of 1870 and an EC50 [2] of 0.00015 µM. For the same binder, the Max [2] was 1480, the EC50 [3] was 0.00019 µM and the Max [3] was 1340. For the same binder, the Kd [4] was 0.025 µM, the Kd [5] was 0.174 µM and the Kd [10] was 0.2 to 1.6 µM. For the same binder, the Kd [7] was 0.013 µM.

B3: ZY0EP0-C07 human IgG1-TM (antibody, V domains shown)
VH: QVQLVESGGVLVKPGGSLRLSCAASGFTLSDYYMSWIRQAPGMGLEWVSYISSSGSTIYYTDSVKGRFTISRDSAKNSLYLQMNSLRAEDTAVYYCARDGVGFDYWGQGTLVTVSS
VL: EIVLTQSPGTLSLFPGERATLSCRASQSVSSSYLAWYQQKPGQSPRLLIYAASSRATGIPDRFSGSGSGTDFTLTISRLEPEDFAVYYCQQYGSSPLYTFGQGTKLEIK
notes: also called ZY0EPO-C07
In the case of B3, the binding result (huB7-H2) is reported as “no binding”, the “ZAP % Viability, OVCAR4” value (human B7-H4 on cells) is reported as 57% and the “ZAP % Viability, SKBR3” value (human B7-H4 on cells) is reported as 72%. The “ZAP IC50 (M), OVCAR4” value (human B7-H4 on cells) was 1e-08 M, the “ZAP IC50 (M), SKBR3” value (human B7-H4 on cells) was 4e-09 M and the EC50 [1] was 0.00031 µM. It also gave a Max [1] of 1210, an EC50 [2] of 0.00039 µM and a Max [2] of 890. It also gave an EC50 [3] of 0.0002 µM, a Max [3] of 1250 and a Kd [4] of 0.011 µM. It also gave a Kd [11] of 0.01 to 0.025 µM, a Kd [6] of 0.01 to 0.6 µM and a Kd [7] of 0.009 µM.

B4: ZY0EPQ-E02 human IgG1-TM (antibody, V domains shown)
VH: B1 VH with S58N, S70L, V98N, V104L
VL: B1 VL with D28G, V33L, K42R, A50V, R53S
In the case of B4, the binding result (huB7-H2) is reported as “no binding”, the “ZAP % Viability, OVCAR4” value (human B7-H4 on cells) is reported as 46% and the “ZAP % Viability, SKBR3” value (human B7-H4 on cells) is reported as 65%. The “ZAP IC50 (M), OVCAR4” value (human B7-H4 on cells) was 2e-08 M, the “ZAP IC50 (M), SKBR3” value (human B7-H4 on cells) was 4e-09 M and the EC50 [1] was 0.00041 µM. The Max [1] was 1090, the EC50 [2] was 0.00035 µM and the Max [2] was 934. The EC50 [3] was 0.00176 µM, the Max [3] was 256 and the Kd [4] was 0.396 µM. For the same binder, the Kd [5] was 1.66 µM, the Kd [11] was 0.01 to 0.025 µM and the Kd [10] was 0.2 to 1.6 µM. For the same binder, the Kd [7] was 0.026 µM and the “EC50 (read off the curve)” value [12] was about 0.3 mg/L.
